Measurements from article doi:10.1101/2025.01.16.633226.
Where two headings read alike, the source gives them in different places.

T1: LARP6 (70-295) (UniProt Q9BRS8 70-295)
T1 sequence: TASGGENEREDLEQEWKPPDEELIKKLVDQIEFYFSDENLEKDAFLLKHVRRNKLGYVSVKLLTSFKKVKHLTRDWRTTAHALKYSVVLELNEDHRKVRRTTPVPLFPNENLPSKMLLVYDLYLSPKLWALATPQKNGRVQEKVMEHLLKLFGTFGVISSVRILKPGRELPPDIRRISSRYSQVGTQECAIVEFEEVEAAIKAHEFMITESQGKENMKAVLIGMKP

T2: LARP6 (ITC) (UniProt Q9BRS8 70-295)
T2 sequence: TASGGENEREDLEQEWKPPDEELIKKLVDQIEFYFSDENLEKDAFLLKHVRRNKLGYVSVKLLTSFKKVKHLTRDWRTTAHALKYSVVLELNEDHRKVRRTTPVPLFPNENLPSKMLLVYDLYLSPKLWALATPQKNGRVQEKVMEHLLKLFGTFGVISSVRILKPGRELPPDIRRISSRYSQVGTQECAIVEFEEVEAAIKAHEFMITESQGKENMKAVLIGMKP

B1: COL1A1-TIS (structured_RNA)
RNA: CCAGCCACAAAGAGUCUACAUGUCUAGGGUCUAGACAUGUUCAGCUUUGUGGACCUCCGG
B2: COL5A1-CDS (ssRNA)
RNA: CUGCUGCUGCUGCUGUGGGCGCCGCCUCCGAGCCGCGCAGCUCAGCCAGCAGAUCUCCUG
B3: LRP1-CDS (ssRNA)
RNA: CUGCAUGUGCACAGCCGGCUAUAGCCUCCGGAGUGGCCAGCAGGCCUGCGAGGGCGUAGG
B4: CCNI-5'UTR (ssRNA)
RNA: GGGUCAUCAUGGAACUAAUUCGCUGACCGACCCAGCGGCCGCAGCCGUGCGUCCCGCUCG

Assays:
LARP6 (70-295) [1] = biological target: T1, LARP6 (70-295); experiment: TR-FRET competition
LARP6 (ITC) [2] = biological target: T2, LARP6 (ITC); experiment: ITC
LARP6 (ITC) [3] = biological target: T2, LARP6 (ITC); experiment: ITC; remark: listed apart in the source
LARP6 (70-295) [4] = biological target: T1, LARP6 (70-295); experiment: TR-FRET competition; remark: listed apart in the source
LARP6 (ITC) [5] = biological target: T2, LARP6 (ITC); experiment: ITC; remark: listed apart in the source
LARP6 (70-295) [6] = biological target: T1, LARP6 (70-295); experiment: TR-FRET competition; remark: listed apart in the source

Binder | IC50 (LARP6 (70-295) [1]) [nM] | binding result (LARP6 (70-295) [4]) | binding result (LARP6 (ITC) [5]) | further results
B1 | 2.71 | – | – | Kd (LARP6 (ITC) [2]): 400 nM
CCACAAAGAGUCUACAUGUCUAGGGUCUAGACAUGUUCAGCUUUGUGG (structured_RNA) [A1 (COL1A1 5'SL)] | 6.84 | – | – | Kd (LARP6 (ITC) [3]): > 400 nM
B2 | – | binds | binds | –
B3 | – | binds | binds | –
B4 | – | – | – | binding result (LARP6 (ITC) [2]): no binding; binding result (LARP6 (70-295) [6]): no binding
